Laboratory results reported in the supplement of paper PMC10567573.

B1: CAMK2A (parent)
chain: CIQQILEAVLHCHQMGVVHRDLKP

Variants of: B1
Test: protein stability index of a GFP-peptide fusion (GPS, HEK-293T) (PSI 1-6); higher = more stable
Details: c terminus: a fixed tail appended
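Note: lentivirally expressed fusions sorted by FACS into six bins by GFP to DsRed ratio, PSI derived from sequencing read proportions per bin multiplied by bin number.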

Variant	protein stability index
CIQQITEAVLHCHQMGVVHRDLKP [L6T]	1.69
CIQQIIEAVLHCHQMGVVHRDLKP [L6I]	2.64
CIQQIFEAVLHCHQMGVVHRDLKP [L6F]	1.07
CIQQIQEAVLHCHQMGVVHRDLKP [L6Q]	2.09
CIQQIREAVLHCHQMGVVHRDLKP [L6R]	1.97
CIQQIYEAVLHCHQMGVVHRDLKP [L6Y]	2.13
CIQQINEAVLHCHQMGVVHRDLKP [L6N]	1.98
CIQQIHEAVLHCHQMGVVHRDLKP [L6H]	1.77
CIQQIKEAVLHCHQMGVVHRDLKP [L6K]	2.4
CIQQICEAVLHCHQMGVVHRDLKP [L6C]	1.84
CIQQIMEAVLHCHQMGVVHRDLKP [L6M]	2.75
CIQQIGEAVLHCHQMGVVHRDLKP [L6G]	2.14
CIQQIPEAVLHCHQMGVVHRDLKP [L6P]	1.83
CIQQIEEAVLHCHQMGVVHRDLKP [L6E]	2.44
CIQQIAEAVLHCHQMGVVHRDLKP [L6A]	1.4
CIQQIDEAVLHCHQMGVVHRDLKP [L6D]	2.93
CIQQISEAVLHCHQMGVVHRDLKP [L6S]	1.71
CIQQIVEAVLHCHQMGVVHRDLKP [L6V]	2.88
CIQQIWEAVLHCHQMGVVHRDLKP [L6W]	1.87
CAQQILEAVLHCHQMGVVHRDLKP [I2A]	2.45
CEQQILEAVLHCHQMGVVHRDLKP [I2E]	1.78
CPQQILEAVLHCHQMGVVHRDLKP [I2P]	2.07
CWQQILEAVLHCHQMGVVHRDLKP [I2W]	1.35
CRQQILEAVLHCHQMGVVHRDLKP [I2R]	2.21

Variant	protein stability index
CTQQILEAVLHCHQMGVVHRDLKP [I2T]	1.79
CQQQILEAVLHCHQMGVVHRDLKP [I2Q]	1.72
CKQQILEAVLHCHQMGVVHRDLKP [I2K]	1.22
CDQQILEAVLHCHQMGVVHRDLKP [I2D]	2.09
CGQQILEAVLHCHQMGVVHRDLKP [I2G]	1.99
CCQQILEAVLHCHQMGVVHRDLKP [I2C]	3.15
CSQQILEAVLHCHQMGVVHRDLKP [I2S]	1.56
CNQQILEAVLHCHQMGVVHRDLKP [I2N]	1.32
CVQQILEAVLHCHQMGVVHRDLKP [I2V]	2.74
CHQQILEAVLHCHQMGVVHRDLKP [I2H]	1.68
CIQPILEAVLHCHQMGVVHRDLKP [Q4P]	1.69
CIQKILEAVLHCHQMGVVHRDLKP [Q4K]	1.93
CIQTILEAVLHCHQMGVVHRDLKP [Q4T]	2.74
CIQGILEAVLHCHQMGVVHRDLKP [Q4G]	5.02
CIQMILEAVLHCHQMGVVHRDLKP [Q4M]	1.92
CIQRILEAVLHCHQMGVVHRDLKP [Q4R]	2.94
CIQNILEAVLHCHQMGVVHRDLKP [Q4N]	2.68
CIQAILEAVLHCHQMGVVHRDLKP [Q4A]	1.96
CIQDILEAVLHCHQMGVVHRDLKP [Q4D]	2.04
CIQHILEAVLHCHQMGVVHRDLKP [Q4H]	2.13
CIQYILEAVLHCHQMGVVHRDLKP [Q4Y]	2.07
CIQLILEAVLHCHQMGVVHRDLKP [Q4L]	2.55
CIQQILGAVLHCHQMGVVHRDLKP [E7G]	4.42
CIQQILKAVLHCHQMGVVHRDLKP [E7K]	2.25

Variant	protein stability index
CIQQILSAVLHCHQMGVVHRDLKP [E7S]	2.57
CIQQILAAVLHCHQMGVVHRDLKP [E7A]	2.02
CIQQILRAVLHCHQMGVVHRDLKP [E7R]	2.81
CIQQILDAVLHCHQMGVVHRDLKP [E7D]	3.99
CIQQILCAVLHCHQMGVVHRDLKP [E7C]	3.72
CIQQILMAVLHCHQMGVVHRDLKP [E7M]	4.26
CIQQILQAVLHCHQMGVVHRDLKP [E7Q]	2.55
CIQQILFAVLHCHQMGVVHRDLKP [E7F]	2.42
CIQQILIAVLHCHQMGVVHRDLKP [E7I]	2.74
CIQQDLEAVLHCHQMGVVHRDLKP [I5D]	2.65
CIQQKLEAVLHCHQMGVVHRDLKP [I5K]	2.16
CIQQNLEAVLHCHQMGVVHRDLKP [I5N]	1.71
CIQQMLEAVLHCHQMGVVHRDLKP [I5M]	4.53
CIQQRLEAVLHCHQMGVVHRDLKP [I5R]	2.2
CIQQFLEAVLHCHQMGVVHRDLKP [I5F]	2.79
CIQQWLEAVLHCHQMGVVHRDLKP [I5W]	2.01
CIQQPLEAVLHCHQMGVVHRDLKP [I5P]	1.81
CIQQQLEAVLHCHQMGVVHRDLKP [I5Q]	1.73
CIQQHLEAVLHCHQMGVVHRDLKP [I5H]	2.44
CIQQELEAVLHCHQMGVVHRDLKP [I5E]	2.3
CIQQCLEAVLHCHQMGVVHRDLKP [I5C]	3.12
CIQQALEAVLHCHQMGVVHRDLKP [I5A]	4.67
CIQQTLEAVLHCHQMGVVHRDLKP [I5T]	2.89
CIQQSLEAVLHCHQMGVVHRDLKP [I5S]	1.69

Variant	protein stability index
CIDQILEAVLHCHQMGVVHRDLKP [Q3D]	3.17
CIHQILEAVLHCHQMGVVHRDLKP [Q3H]	3.11
CIPQILEAVLHCHQMGVVHRDLKP [Q3P]	3.19
CIFQILEAVLHCHQMGVVHRDLKP [Q3F]	2.24
CIIQILEAVLHCHQMGVVHRDLKP [Q3I]	2.81
CICQILEAVLHCHQMGVVHRDLKP [Q3C]	3.04
CITQILEAVLHCHQMGVVHRDLKP [Q3T]	3.42
CIGQILEAVLHCHQMGVVHRDLKP [Q3G]	3.91
CIYQILEAVLHCHQMGVVHRDLKP [Q3Y]	3.67
CIKQILEAVLHCHQMGVVHRDLKP [Q3K]	2.77
CIVQILEAVLHCHQMGVVHRDLKP [Q3V]	3.85
CIAQILEAVLHCHQMGVVHRDLKP [Q3A]	3.85
WIQQILEAVLHCHQMGVVHRDLKP [C1W]	1.78
YIQQILEAVLHCHQMGVVHRDLKP [C1Y]	2.37
RIQQILEAVLHCHQMGVVHRDLKP [C1R]	2.22
VIQQILEAVLHCHQMGVVHRDLKP [C1V]	2.22
KIQQILEAVLHCHQMGVVHRDLKP [C1K]	2.82
IIQQILEAVLHCHQMGVVHRDLKP [C1I]	3.46
TIQQILEAVLHCHQMGVVHRDLKP [C1T]	2.82
QIQQILEAVLHCHQMGVVHRDLKP [C1Q]	1.13
MIQQILEAVLHCHQMGVVHRDLKP [C1M]	4.15
LIQQILEAVLHCHQMGVVHRDLKP [C1L]	3.19
